Measured values from paper PMC5658604.
pKd: −log10 of the molar value.

Legend:
[1] = test system: TtSmtB (Thermus thermophilus HB27); assay: EMSA; conditions: cooperative, EMSA as in Fiorentino et al., 2007 (buffer not given here), 0-15 uM protein, 1 nM probe in the competition assay, footprinting in binding buffer, DNase I 1 min …
[2] = target: T1, TtSmtB (Thermus thermophilus HB27) (UniProt Q72KG0); assay: EMSA; conditions: EMSA as in Fiorentino et al., 2007 (buffer not given here), 0-15 uM protein, 1 nM probe in the competition assay; footprinting in binding buffer, DNase I 1 min …
T1 sequence: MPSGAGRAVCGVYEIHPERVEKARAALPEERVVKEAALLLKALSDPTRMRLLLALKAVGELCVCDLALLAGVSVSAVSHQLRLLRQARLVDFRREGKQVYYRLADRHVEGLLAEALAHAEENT

[3] = target: T1, TtSmtB (Thermus thermophilus HB27); assay: competition; conditions: EMSA as in Fiorentino et al., 2007 (buffer not given here), 0-15 uM protein, 1 nM probe in the competition assay; footprinting in binding buffer, DNase I 1 min …
[4] = target: T1, TtSmtB (Thermus thermophilus HB27); assay: DNase I footprinting; conditions: EMSA as in Fiorentino et al., 2007 (buffer not given here), 0-15 uM protein, 1 nM probe in the competition assay, DNase I 1 min …

0354p (TTC0354 promoter) gave a pKd ([1]; apparent, Hill fit) of 5.85.

In the case of “AGAGGACGAGGACCCGCATCCTCCAAAGCCTAGCCCCCCTTCGGTCAGGGGGAGATCATGCGCTCAAGCTGGGCCACC (double strand) [TtarsCp (TtarsC promoter)]”, the binding [2] was “binds”.

With “CGCCTCGCCGACCGGCACGTGGAGGGCCTGTTGGCGGAGGCCCTGGCCCACGCGGAAGAAAACACTTGACCAGTTGCTCAAATGATGCTACCCTGGGGGCATGAAGGCTCCCAGAGTGCGCGTCTTCCGGGTAGAGGGCATGG (double strand) [0354p (TTC0354 promoter)]” the binding [3] was “binds”, the binding [4] was “binds” and the pKd [2] was 5.85.

Substance “CTCCTTGACCACCCTCTCCTCGGGCAGGGCGGCCCGGGCCTTCTCCACCCTTTCCGGGTGGATCTCGTAGACCCCGCAGACCGCCCTACCAGCCCCGCTTGGCAAGCCTTTCCTCCTCCTTGAGCTGGTCCAGGTTGATGCCCACCATG (double strand) [TtsmtBp (TtsmtB promoter)]” has a pKd [2] of 5.30.

TtsmtBp (TtsmtB promoter) was tested, and the pKd ([1]; multiple complexes) was 5.30.
